Test results taken from US20130071390A1 (Merck Sharp & Dohme, published 2013).

Columns and labels:
[1] = target: T1, FcγRI (Fc receptor gamma-chain I, CD64) (UniProt P12314 16-288); assay: FcγR ELISA
T1 construct: also called FcγR1
Protocol: (§1) High protein binding 96-well plates (Corning Costar, Lowell, Mass.) were coated with 100 μl per well of Fcγ receptor solutions in PBS at the following concentrations: 1 μg/mL for FcγRI (R & D Systems) and FcγRIIa (Pichia pastoris produced), 2 μg/mL for FcγRIIb/c (P. pastoris produced), 0.4 μg/mL for FcγRIIIa-V158, and 0.8 μg/mL for FcγRIIIa-F158 (both P. pastoris produced).
(§2) For FcγRI, the antibody was coated in assay diluent (1% BSA, PBS, 0.05% Tween20) in monomeric form. For all other receptors, the antibody was coated after dimerization with alkaline phosphatase conjugated anti-human IgG F(ab′)₂ (Jackson ImmunoResearch, West Grove, Pa.) for one hour at room temperature. FcγRI bound antibody was also detected using the F(ab′)₂ and all plates were quantified by measuring excitation at 340 nm and emission at 465 nm after an 18 hour incubation with SuperPhosk (Virolabs, Chantilly, Va.).

[2] = target: T2, histidine-tagged extracellular domain of human Fc gamma receptor IIb/c (Pichia pastoris produced) (human, UniProt P31994 46-217); assay: FcγR ELISA, receptor coated on plate
T2 construct: also called FcγRIIb/c; FcγRIIb
T2 sequence: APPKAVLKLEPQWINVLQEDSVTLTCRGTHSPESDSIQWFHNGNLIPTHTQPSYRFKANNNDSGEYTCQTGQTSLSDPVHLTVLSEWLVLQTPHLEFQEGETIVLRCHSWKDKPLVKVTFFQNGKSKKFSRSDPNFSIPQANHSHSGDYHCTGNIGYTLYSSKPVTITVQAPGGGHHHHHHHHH
Protocol: as §1, §2

T1 sequence (P12314 16-288 limits assumed): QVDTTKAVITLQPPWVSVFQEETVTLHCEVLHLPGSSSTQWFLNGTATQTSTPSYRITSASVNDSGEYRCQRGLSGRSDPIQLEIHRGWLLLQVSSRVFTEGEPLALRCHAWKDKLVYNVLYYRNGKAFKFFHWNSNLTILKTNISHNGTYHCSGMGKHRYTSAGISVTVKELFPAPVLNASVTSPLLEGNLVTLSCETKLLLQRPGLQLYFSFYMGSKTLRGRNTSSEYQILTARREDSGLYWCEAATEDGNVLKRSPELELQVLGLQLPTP

fold reduction in binding vs parent antibody (produced in GFI5.0) [1]: ~4 fold
binding result [2]: no binding
B1: anti-PCSK9 double mutein antibody F243A/V264A produced in GFI6.0 (antibody, human IgG1, kappa)
heavy: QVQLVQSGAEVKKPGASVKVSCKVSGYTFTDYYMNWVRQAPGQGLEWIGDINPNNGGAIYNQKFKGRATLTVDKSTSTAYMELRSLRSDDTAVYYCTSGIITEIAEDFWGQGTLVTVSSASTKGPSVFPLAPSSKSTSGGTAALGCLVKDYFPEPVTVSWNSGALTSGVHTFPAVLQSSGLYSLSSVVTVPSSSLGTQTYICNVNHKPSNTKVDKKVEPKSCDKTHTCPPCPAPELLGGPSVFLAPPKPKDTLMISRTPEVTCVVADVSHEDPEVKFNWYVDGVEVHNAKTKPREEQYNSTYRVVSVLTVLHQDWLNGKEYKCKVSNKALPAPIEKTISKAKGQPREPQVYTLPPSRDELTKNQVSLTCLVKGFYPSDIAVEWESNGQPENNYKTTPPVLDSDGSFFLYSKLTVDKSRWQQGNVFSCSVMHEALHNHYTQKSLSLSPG
light: DIQMTQSPSSLSASVGDRVTITCKASQNVGTNVVWYQQKPGKAPKALIHSASYRYSGVPSRFSGSGSGTDFTLTISSLQPEDFATYYCQQYKTYPYTFGQGTKVEIKRTVAAPSVFIFPPSDEQLKSGTASVVCLLNNFYPREAKVQWKVDNALQSGNSQESVTEQDSKDSTYSLSSTLTLSKADYEKHKVYACEVTHQGLSSPVTKSFNRGEC
